US7135326B2, “UDP-glucosyltransferases” (E. I. du Pont de Nemours and Company, priority 2002, dated 2006)

Tests used:
[1] = system: Grape GT; experiment: Substrate specificity of the purified recombinant Grape GT, HPLC analysis of glucose ester formation; format: biochemical, Vitis sp.; details: relative to pHBA = 100, 10 mM test substrate, 0.0467 μM purified Grape GT, 15 min, 25° C.
Method: To rule out the possibility that the Grape GT can also attach glucose to the hydroxyl group of pHBA, the products of the in vitro enzyme reaction were directly analyzed by reverse phase HPLC. […] Following a 1-min incubation period at 25° C., the reactions were terminated by the addition of an equal volume of 0.2 N HCl. […] The column was developed at 1 mL/min with a linear gradient of 10–50% Buffer B that was generated over a 20-min period, and absorbance was monitored at 254 nm. […] To test this hypothesis, Applicants' decided to examine the substrate specificity of the Grape GT in greater detail. […] Following a 15-min incubation period at 25° C., the reactions were quenched with an equal volume of 0.3 M HCl and the entire reaction mixture was analyzed by HPLC as described above in Example 6. The products of the various reactions were identified using authentic chemical standards. The retention times and extinction coefficients of these compounds were determined using the same column conditions. […] Regardless of substrate, the purified recombinant Grape GT only catalyzed the formation of glucose esters, which in all cases co-migrated precisely with the authentic compounds. […] Since the glucose ester of the latter compound is the precursor for the synthesis of simple and complex tannins that are extremely abundant in grapes, it is possible that gallic acid is a physiological substrate of the Grape GT. The data shown in Table 3 make it clear that although the Grape GT glucosylated mHBA (3-hydroxybenzoic […]) at a reasonable rate, product formation with oHBA (2-hydroxybenzoic acid) was not observed.

[2] = target: CPL (Escherichia coli, UniProt P26602); experiment: Product inhibition of CPL by pHBA; format: biochemical, E. coli; details: read-out: inhibitory constant (Ki)
Method: Although double transformant line 39 and the CPL control plant had essentially the same amount of CPL enzyme activity as measured in leaf extracts (Table 8), this doesn't necessarily reflect the situation in vivo. CPL enzyme assays are conducted under optimal conditions, and measure initial velocities in the presence of excess substrate and absence of products. Thus, the initial rate of product formation in the in vitro assay is strictly proportional to the amount of enzyme that is added to the cuvette. Consequently, if two plants had identical levels of CPL gene expression, leaf extracts prepared from these plants would theoretically yield the same initial velocity in the in vitro assay. […] Applicants confirmed these observations.

[3] = system: Arabidopsis thaliana glucosyltransferase UGT84A3 (GT 4, SEQ ID NO:12); details: 20° C., pH 6; calculated from Vmax of Lim et al. 2001; cited from earlier work
[4] = system: Arabidopsis thaliana glucosyltransferase UGT84A1 (84A1, GT 3, SEQ ID NO:8); details: 20° C., pH 6; calculated from Vmax of Lim et al. 2001; cited from earlier work
[5] = Acid and base hydrolysis of pHBA glucose conjugates, HPLC; format: physicochemical; details: 48 h at 60° C. with NaOH or HCL, 0.19 mM
Method: The initial concentration of both compounds was 0.19 mM and the total reaction volume was […]. Reactions were conducted in tightly sealed polypropylene tubes to prevent evaporative loss. […] Prior to HPLC analysis, the acid hydrolyzed samples were diluted with an equal volume of NaOH that contained a 0.2 mM excess of NaOH relative to the original concentration of HCL. The base hydrolyzed samples were analyzed directly. Chemically synthesized pHBA phenolic and ester glucoside standards and free pHBA were used to calibrate the HPLC runs for retention times, and extinction coefficients for all three compounds were accurately determined under the conditions employed. Peak areas were integrated using the software package provided with the Hewlett Packard Chemstation, and values obtained with known amounts of the chemical standards were used to quantitate compounds of interest in the acid and base hydrolyzed samples.

[6] = system: Arabidopsis thaliana glucosyltransferase UGT84A2; details: 20° C., pH 6; calculated from Vmax of Lim et al. 2001; cited from earlier work
[7] = Freeze/thaw stability of the purified recombinant Grape GT; format: physicochemical; details: diluted in buffer with 6% glycerol and 5 mM dithiothreitol, kept on ice, frozen to −80° C.
Method: For all the enzyme assays described below, frozen aliquots of the purified Grape GT were rapidly thawed and diluted to the desired concentration with ice-cold buffer containing 50 mM Tris-HCl (pH 7.6), 1 mM EDTA, 10 mM Na2SO3, 300 mM NaCl, 6% glycerol and 5 mM dithiothreitol.

[8] = Ratio of enzyme activity with pHBA versus sinapic acid (spectrophotometric assays); format: biochemical; details: for pHBA/SA ratio of enzyme activity: crude extract
Method: (§1) The second assay is based on the increase in absorbance at 368 nm that accompanies the formation of the glucose ester of sinapic acid. The experimental conditions were the same as those described above, but the test substrate was sinapic acid and product formation was calculated using an extinction coefficient of 5,570 M^−1 that was obtained with the authentic chemically synthesized compound under identical conditions.

[9] = Continuous spectrophotometric UDP-glucosyltransferase assay, formation of glucose ester of sinapic acid at 368 nm, E. coli cell-free extracts; format: biochemical; details: crude extract, 10 mM UDP-glucose, pH 7.3, 25° C.
Method: (§2) For protein production, the resulting recombinant strains were grown at 22° C. in 50 mL of LB media that contained kanamycin (50 μg/mL). At an A600 nm of ˜0.6, isopropyl-1-thio-β-D-galactopyranoside was added to a final concentration of 0.2 mM. Following a 22-h induction period at the same temperature, the cells were harvested by centrifugation and stored at −80° C. for subsequent manipulation as described below.
(§3) The frozen cell pellets were resuspended in 1.0 mL of a solution containing 100 mM Tris-HCl (pH 7.7), 5 mM MgSO4, 1 mM dithiothreitol, 0.03 mg/mL DNAse I, 0.5 mM phenylmethanesulfonyl fluoride, and passed once through a French pressure cell at 20,000 psi. Debris was removed by centrifugation (43,000×g, 60 min), and the resulting cell-free extracts, containing ˜15 mg of protein per mL, were supplemented with 5% glycerol and stored at −80° C. for subsequent measurements of enzyme activities. Protein concentrations were determined by the Bradford Method using bovine serum albumin as a standard.
as §1

[10] = Continuous spectrophotometric UDP-glucosyltransferase assay, formation of pHBA glucose ester at 304 nm, E. coli cell-free extracts; format: biochemical; details: crude extract, 10 mM UDP-glucose, pH 7.3, 25° C.
Method: as §2, §3

[11] = Reverse phase HPLC analysis of the products of the in vitro enzyme reaction with pHBA; format: biochemical
Method: To rule out the possibility that the Grape GT can also attach glucose to the hydroxyl group of pHBA, the products of the in vitro enzyme reaction were directly analyzed by reverse phase HPLC. […] Following a 1-min incubation period at 25° C., the reactions were terminated by the addition of an equal volume of 0.2 N HCl. The samples were briefly centrifuged, and 20-μL aliquots of the resulting supernatants were injected onto a Vydac 218TP54 Protein and Peptide C18 column, (Grace Vydac, Hesperia, Calif.) pre-equilibrated with 90% Buffer A (0.1% formic acid in water) and 10% Buffer B (methanol). The column was developed at 1 mL/min with a linear gradient of 10–50% Buffer B that was generated over a 20-min period, and absorbance was monitored at 254 nm.
In light of these observations, it was extremely important to analyze the reaction products of the Grape GT over a broader range of pH that encompasses physiological conditions. […] In addition, the reaction mixtures also contained 100 mM potassium phosphate buffer (pH 6.0, 7.0 or 8.0), 5 mM MgCl2, 5 mM UDP-glucose, 2 mM dithiothreitol, and 0.47 μM of the purified recombinant Grape GT. After a 15-min incubation period, the reactions were terminated by the addition of an equal volume of 0.3 M HCl and analyzed by reverse phase HPLC as described above. […]

Chain of CPL (P26602 whole entry): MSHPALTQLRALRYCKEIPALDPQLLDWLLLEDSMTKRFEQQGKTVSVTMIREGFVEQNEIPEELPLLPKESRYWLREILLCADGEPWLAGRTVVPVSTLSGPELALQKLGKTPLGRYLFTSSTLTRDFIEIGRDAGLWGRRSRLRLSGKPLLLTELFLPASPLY

Question: Which “Relative Rate of product formation” value [1] does the source give for COc1cc(/C=C/C(=O)O)ccc1O [Ferrulic acid, ferrulic acid] here?
Answer: 16

Question: Which “Relative Rate of product formation” value [1] does the source give for O=C(O)c1cc(O)c(O)c(O)c1 [Gallic acid, 3,4,5-trihydoxybenzoic acid] here?
Answer: 64

Question: For O=C(O)c1cccc(O)c1 [MHBA, m-Hydroxybenzoic acid], which “Relative Rate of product formation” value [1] is on record?
Answer: 47

Question: With O=C(O)c1ccccc1O [OHBA, o-Hydroxybenzoic acid] as the molecule, how does the “Relative Rate of product formation” value [1] read?
Answer: 0

Question: With O=C(O)c1ccc(O)cc1 [PHBA, p-Hydroxybenzoic acid] as the molecule, how does the “Relative Rate of product formation” value [1] read?
Answer: 100

Question: What about the Ki [2] of the same molecule?
Answer: ~2000 nM

Question: For O=C(O)C=Cc1ccc(O)cc1 [PHCA, 4-hydroxycinnamic acid], which “Relative Rate of product formation” value [1] is on record?
Answer: 56

Question: Which “Relative Rate of product formation” value [1] does the source give for COc1cc(/C=C/C(=O)O)cc(OC)c1O [Sinapic acid] here?
Answer: 10

Question: Which “turnover number with cinnamic acid” value [3] does the source give for O=C(O)/C=C/c1ccccc1 [cinnamic acid] here?
Answer: ~0.9 s⁻¹

Question: With O=C(O)/C=C/c1ccc(O)cc1 [p-hydroxycinnamic acid] as the molecule, how does the “turnover number with p-hydroxycinnamic acid” value [4] read?
Answer: ~0.70 s⁻¹

Question: Which “susceptibility to acid and base hydrolysis” value [5] does the source give for O=C(O[C@@H]1O[C@H](CO)[C@@H](O)[C@H](O)[C@H]1O)c1ccc(O)cc1 [pHBA glucose ester] here?
Answer: far more susceptible to acid and base hydrolysis than the pHBA phenolic glucoside

Question: For COc1cc(/C=C/C(=O)O)cc(OC)c1O [sinapic acid, Sinapic acid], which “turnover number with sinapic acid” value [6] is on record?
Answer: ~0.72 s⁻¹

B1: Grape GT: Vitis sp. UDP-glucosyltransferase, SEQ ID NO:18, recombinant from E. coli (protein)
chain: MGSESKLVHVFLVSFPGQGHVNPLLRLGKRLASKGLLVTFSTPESIGKQMRKASNITDQPTPVGEGLIRFEFFEDEWDENEPKRQDLDLYLPQLELVGKKVLPQMIKKHAEQDRPVSCLINNPFIPWVSDVAADLGIPSAMLWVQSCACFSTYYHYYHGLVPFPSEAEPEIDVQLPCMPLLKYDEVASFLYPTTPYPFLRRAILGQYRNLDKPFCILMDTFQELEPEVIEYMSKICPIKPVGPLYKNPKVPNAAVRGDFMKADDCIEWLDSKPPSSIVYVSFGSVVYLKQDQVDEIAYGLLNSGLQFLWVMKPPHKDAGLELLVLPEGFLEKAGDKGKVVQWSPQEQVLAHPSVACFVTHCGWNSSMEALSSGMPVVAFPQWGDQVTDAKYLVDEFKIGVRMCRGEAENKLITRDEVEKCLIEATTGPKAAELKQNAMKWKKAAEQAVAEGGSSERNLQGFVDEVRRRSIEIIYKTKI
modifications: Vitis ssp.
Question: With B1 as the molecule, how does the stability to freeze/thaw [7] read?
Answer: stable to multiple cycles of freeze/thaw without significant loss of enzyme activity

Question: What about the “substrate preference for pHBA over sinapic acid” value ([8]; 10 mM substrate concentration) of the same molecule?
Answer: 37.7 fold

Question: What about the “rate of pHBA glucosylation relative to sinapic acid” value ([8]; 10 mM substrate, cell-free extract) of the same molecule?
Answer: ~40 times

Question: And the “Ratio of Activity pHBA/SA” value ([8]; Table 4, cell-free extracts, 10 mM pHBA or sinapic acid, 25° C.)?
Answer: 37.7

Question: What about the “pHBA/SA ratio of enzyme activity” value ([8]; 1 mM substrate) of the same molecule?
Answer: 4.23

Question: What about the “pHBA/SA ratio of enzyme activity” value ([8]; 5 mM substrate) of the same molecule?
Answer: 10.7

Question: What about the “pHBA/SA ratio of enzyme activity” value ([8]; 10 mM substrate) of the same molecule?
Answer: 37.7

Question: And the “initial rate of product formation, 1 mM SA” value ([9]; 1 mM sinapic acid)?
Answer: 22.8 μM per min

Question: And the “initial rate of product formation, 5 mM SA” value ([9]; 5 mM sinapic acid)?
Answer: 16.6 μM per min

Question: And the “initial rate of product formation, 10 mM SA” value ([9]; 10 mM sinapic acid)?
Answer: 4.8 μM per min

Question: What about the “initial rate of product formation, 1 mM pHBA” value ([10]; 1 mM pHBA) of the same molecule?
Answer: 96.4 μM per min

Question: And the “initial rate of product formation, 5 mM pHBA” value ([10]; 5 mM pHBA)?
Answer: 177 μM per min

Question: What about the “initial rate of product formation, 10 mM pHBA” value ([10]; 10 mM pHBA) of the same molecule?
Answer: 181 μM per min

Question: What about the “glucose conjugates detected by HPLC” value ([11]; pH 6.0, 7.0 or 8.0, 0.15 mM or 5 mM pHBA, 0.47 μM purified Grape GT, 15 min) of the same molecule?
Answer: the only glucose conjugate that was detected in the in vitro assay was the pHBA glucose ester

Question: And the “glucosylated products detected by HPLC” value ([11]; purified enzyme, pH 7.3, 0.3 mM pHBA, 5 mM UDP-glucose, 25° C. (Example 6))?
Answer: the only glucosylated product that was detected in the fractionated enzyme reaction mixture was the pHBA glucose ester
